Assay results: patent US20190135932A1 (Pfizer, published 2019)
Several values for one entry are separate records, joined by “and”; a condition that tells them apart may be missing. Identical values can stand only once.

T1: human OX40R on activated primary human T cells (human, UniProt P43489 29-277)
T1 construct: whole, on cells; also called CD3/CD28 stimulated T cells; human PBMC's stimulated with anti-CD3 and anti-CD28
T1 sequence (looked up): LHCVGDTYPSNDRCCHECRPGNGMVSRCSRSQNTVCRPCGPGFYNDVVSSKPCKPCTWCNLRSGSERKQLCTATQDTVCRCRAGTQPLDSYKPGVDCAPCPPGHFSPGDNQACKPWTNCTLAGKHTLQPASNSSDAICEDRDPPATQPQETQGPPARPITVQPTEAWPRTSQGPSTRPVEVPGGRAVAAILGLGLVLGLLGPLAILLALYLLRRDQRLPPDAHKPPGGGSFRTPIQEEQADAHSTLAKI


Columns and labels:
[1] = target: T1, human OX40R on activated primary human …; experiment: FACS saturation binding on CD3/CD28 stimulated human T cells (N = 4)
Description: OX40R-expressing cell lines (see below) or activated primary peripheral blood mononuclear cells (see below) were used to assess binding on both the human and cynomolgus OX40 receptors. Cells were harvested and washed (5×10⁵/tube) using wash buffer at RT°. The wash buffer consisted of PBS, 2% heat-inactivated fetal bovine serum (Hyclone, Logan, Utah) and 0.02% sodium azide (Sigma, St. Louis, Mo.). Next, 100 μl of various concentrations of antibody was added to the cells (starting at 30 ug/ml and using a 3-fold titration) diluted in wash buffer containing 0.005 mg/ml of cytocholasin B (Sigma, St. Louis, Mo.). The cells were gently rocked at RT° for 3 hours. Next, the cells were washed twice and resuspended in 0.5 ml/tube with cold wash buffer and 10,000 events were collected and analyzed using a Becton Dickinson FACSCalibur and CellQuest software (San Jose, Calif.).
Human whole blood was collected into heparinized syringes (Baxter; Deerfield, Ill.) and then immediately transferred to Sigma Accuspin tubes (Sigma, St. Louis, Mo.) for the isolation of peripheral blood mononuclear cells (PBMC) as described by the manufacturer. The PBMC were washed twice with DPBS and T lymphocytes were isolated using a T cell purification column as described by the manufacturer (R & D Systems, Minneapolis, Minn.). […]

[2] = target: cynomolgus OX40R on activated cynomolgus monkey T cells / PBMCs (cynomolgus monkey); experiment: cell-based or functional assay

EC50 [1]	EC50 of anti-CD3 induced IL-2 production by monkey cells (mean of 1:3 dilution curves, N=3) [2]	Binder
1.06 µg/mL and 7.3 nM	–	human monoclonal antibody 18D8 (antibody, human IgG2, kappa, V domains shown) VH: EVQLVESGGGLVQPGRSLRLSCAASGFTFDDYAMHWVRQAPGKGLEWVSGISWNSGSIGYADSVKGRFTISRDNAKNSLYLQMNSLRAEDTALYYCAKDQSTADYYFYYGMDVWGQGTTVTVSS VL: EIVVTQSPATLSLSPGERATLSCRASQSVSSYLAWYQQKPGQAPRLLIYDASNRATGIPARFSGSGSGTDFTLTISSLEPEDFAVYYCQQRSNWPTFGQGTKVEIKR
–	0.022 µg/mL	human monoclonal antibody 11D4 (antibody, V domains shown, IgG2 heavy chain, kappa light chain; allotypes G2(n-) and Km3; Alexa Fluor 647 conjugate was used in the species cross-reactivity FACS) VH: EVQLVESGGGLVQPGGSLRLSCAASGFTFSSYSMNWVRQAPGKGLEWVSYISSSSSTIDYADSVKGRFTISRDNAKNSLYLQMNSLRDEDTAVYYCARESGWYLFDYWGQGTLVTVSS VL: DIQMTQSPSSLSASVGDRVTITCRASQGISSWLAWYQQKPEKAPKSLIYAASSLQSGVPSRFSGSGSGTDFTLTISSLQPEDFATYYCQQYNSYPPTFGGGTKVEIKR
